The record followed here is US20070098715A1.

This experiment has as its target Ten-M2 endogenously expressed on human cancer cell lines (SNB-19 and others) (human) (UniProt Q9NT68). The experiment can be described thus: flow cytometry on SNB-19 cells at 4° C., Alexa647 anti-human IgG secondary. A general note: In flow cytometry, cells or beads pass a laser one at a time.

isotype control Ab (antibody) registered a Total Bound Fluorescence of 2.2.
